The target in assay [1] is hTrkB-a isoform fused to a small peptide epitope, in U2OS cells (Discoverx Pathhunter) (human) (UniProt Q16620). The assay is described as follows: cell-based or functional assay.
Assay [2] deals with hTrkA in the SHC1 recruitment assay (U2OS, Discoverx Pathhunter) (human) (UniProt P04629). The assay is described as follows: cell-based or functional assay.
Assay [3] addresses hTrkC in the SHC1 recruitment assay (U2OS, Discoverx Pathhunter) (human) (UniProt Q16288). Nature of the assay: cell-based or functional assay.
Assay [4] deals with human TrkC (open reading frame from NM_001012338.1) in HEK-293 cells (human) (UniProt Q16288). Nature of the assay: cell-based or functional assay.
Sequence of human TrkC (open reading frame from NM_001012338.1) in HEK-293 cells (human) (Q16288 32-839): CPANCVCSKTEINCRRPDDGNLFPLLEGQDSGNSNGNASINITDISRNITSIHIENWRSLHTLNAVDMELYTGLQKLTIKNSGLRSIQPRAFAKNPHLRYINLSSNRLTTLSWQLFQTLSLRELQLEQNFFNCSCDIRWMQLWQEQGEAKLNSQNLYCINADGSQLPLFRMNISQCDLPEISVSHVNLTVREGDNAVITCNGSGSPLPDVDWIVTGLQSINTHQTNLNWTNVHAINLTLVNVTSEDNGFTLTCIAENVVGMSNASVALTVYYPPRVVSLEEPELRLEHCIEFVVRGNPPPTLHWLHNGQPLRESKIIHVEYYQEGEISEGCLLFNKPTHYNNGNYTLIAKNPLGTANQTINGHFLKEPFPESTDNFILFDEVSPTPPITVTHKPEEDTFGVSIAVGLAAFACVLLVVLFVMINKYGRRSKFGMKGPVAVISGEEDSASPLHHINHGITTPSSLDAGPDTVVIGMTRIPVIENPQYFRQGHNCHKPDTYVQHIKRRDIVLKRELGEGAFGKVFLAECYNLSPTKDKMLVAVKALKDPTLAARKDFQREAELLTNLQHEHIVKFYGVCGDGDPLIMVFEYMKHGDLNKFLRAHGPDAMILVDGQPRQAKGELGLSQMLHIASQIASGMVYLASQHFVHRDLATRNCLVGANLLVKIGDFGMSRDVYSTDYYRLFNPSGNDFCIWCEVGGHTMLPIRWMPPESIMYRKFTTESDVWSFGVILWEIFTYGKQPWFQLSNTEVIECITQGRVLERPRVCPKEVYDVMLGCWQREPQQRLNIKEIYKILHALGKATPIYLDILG
The target in assay [5] is TrkB, Dog (Canis familiaris, XM_851329) on 293 cells (dog (Canis familiaris)). Nature of the assay: cell-based ELISA on transfected 293 cells.
Sequence of TrkB, Dog (Canis familiaris, XM_851329) on 293 cells (dog (Canis familiaris)) (Q16620 other isoform, or with tags, fused parts or gaps limits assumed): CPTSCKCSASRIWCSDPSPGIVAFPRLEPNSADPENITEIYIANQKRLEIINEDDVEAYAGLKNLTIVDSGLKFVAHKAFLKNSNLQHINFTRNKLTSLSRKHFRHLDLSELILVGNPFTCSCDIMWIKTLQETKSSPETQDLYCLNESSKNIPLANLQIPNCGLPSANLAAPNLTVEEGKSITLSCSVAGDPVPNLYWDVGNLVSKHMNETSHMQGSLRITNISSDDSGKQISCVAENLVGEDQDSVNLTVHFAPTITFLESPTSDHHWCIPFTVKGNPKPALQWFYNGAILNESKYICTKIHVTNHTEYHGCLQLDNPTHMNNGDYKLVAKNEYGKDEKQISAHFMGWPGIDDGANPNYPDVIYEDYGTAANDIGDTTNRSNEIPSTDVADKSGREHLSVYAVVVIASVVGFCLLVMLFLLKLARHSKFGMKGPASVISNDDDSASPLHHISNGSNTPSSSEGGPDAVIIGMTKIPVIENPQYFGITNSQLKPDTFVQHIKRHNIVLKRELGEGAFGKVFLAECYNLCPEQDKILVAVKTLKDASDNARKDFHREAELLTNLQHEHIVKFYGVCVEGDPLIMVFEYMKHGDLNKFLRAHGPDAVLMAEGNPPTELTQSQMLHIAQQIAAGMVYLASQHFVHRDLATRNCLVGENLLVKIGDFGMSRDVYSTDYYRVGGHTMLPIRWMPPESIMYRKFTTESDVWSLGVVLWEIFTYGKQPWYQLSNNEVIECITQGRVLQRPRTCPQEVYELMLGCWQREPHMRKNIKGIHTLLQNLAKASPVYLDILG
For assay [6] the target is unchanged. Nature of the assay: cell-based ELISA on transiently transfected HEK293 cells. For orientation: An ELISA detects its analyte on a solid surface through an enzyme-linked reagent.

Data on 4 molecules can be found in US20200123260A1.

Sequence of hTrkC in the SHC1 recruitment assay (U2OS, Discoverx Pathhunter) (human) (Q16288 32-839): as the sequence (Q16288 32-839) above
Sequence of hTrkA in the SHC1 recruitment assay (U2OS, Discoverx Pathhunter) (human) (P04629 33-796): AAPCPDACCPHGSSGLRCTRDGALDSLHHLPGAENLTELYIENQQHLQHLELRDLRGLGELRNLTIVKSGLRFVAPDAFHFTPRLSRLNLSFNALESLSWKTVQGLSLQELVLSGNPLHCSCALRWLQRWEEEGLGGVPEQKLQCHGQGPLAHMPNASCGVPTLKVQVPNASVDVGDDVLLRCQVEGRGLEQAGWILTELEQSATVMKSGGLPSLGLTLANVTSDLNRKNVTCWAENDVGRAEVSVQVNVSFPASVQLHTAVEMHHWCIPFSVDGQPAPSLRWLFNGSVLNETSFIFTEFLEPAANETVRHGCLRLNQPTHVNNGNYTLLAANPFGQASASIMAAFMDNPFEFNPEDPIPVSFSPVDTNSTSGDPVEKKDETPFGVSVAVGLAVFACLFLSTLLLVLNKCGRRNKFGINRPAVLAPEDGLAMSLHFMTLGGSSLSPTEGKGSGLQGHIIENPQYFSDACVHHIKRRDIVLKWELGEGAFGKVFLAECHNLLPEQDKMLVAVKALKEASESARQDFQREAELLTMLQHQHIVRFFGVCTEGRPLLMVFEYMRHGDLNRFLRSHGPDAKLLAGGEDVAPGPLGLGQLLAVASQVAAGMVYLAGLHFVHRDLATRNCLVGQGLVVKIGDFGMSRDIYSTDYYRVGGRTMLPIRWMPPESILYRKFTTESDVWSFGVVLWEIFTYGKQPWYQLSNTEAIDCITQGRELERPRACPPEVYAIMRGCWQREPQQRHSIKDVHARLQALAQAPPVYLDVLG
Sequence of hTrkB-a isoform fused to a small peptide epitope, in U2OS cells (Discoverx Pathhunter) (human) (Q16620 32-822): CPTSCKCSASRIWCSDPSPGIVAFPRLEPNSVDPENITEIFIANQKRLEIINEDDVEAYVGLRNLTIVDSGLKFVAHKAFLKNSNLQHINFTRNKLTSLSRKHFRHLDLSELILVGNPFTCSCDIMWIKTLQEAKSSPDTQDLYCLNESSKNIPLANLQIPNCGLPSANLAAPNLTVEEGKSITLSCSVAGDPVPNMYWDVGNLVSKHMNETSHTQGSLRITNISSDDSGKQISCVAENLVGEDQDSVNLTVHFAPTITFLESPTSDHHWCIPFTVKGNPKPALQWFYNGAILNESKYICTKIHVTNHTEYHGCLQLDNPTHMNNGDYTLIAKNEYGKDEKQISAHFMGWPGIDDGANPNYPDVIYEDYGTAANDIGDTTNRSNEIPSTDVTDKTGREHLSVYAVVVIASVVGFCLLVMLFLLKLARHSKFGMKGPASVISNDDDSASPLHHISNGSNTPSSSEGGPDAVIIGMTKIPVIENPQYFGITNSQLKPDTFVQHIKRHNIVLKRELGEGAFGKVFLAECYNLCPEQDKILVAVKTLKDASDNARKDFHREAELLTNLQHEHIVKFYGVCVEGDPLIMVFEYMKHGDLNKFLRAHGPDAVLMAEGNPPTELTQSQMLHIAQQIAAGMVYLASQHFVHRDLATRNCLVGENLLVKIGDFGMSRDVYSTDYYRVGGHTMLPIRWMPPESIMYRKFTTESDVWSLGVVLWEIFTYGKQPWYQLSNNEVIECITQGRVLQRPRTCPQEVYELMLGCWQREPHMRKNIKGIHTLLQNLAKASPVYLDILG

B1: NT3 (R&D267N3) (ligand, UniProt P20783 139-257, looked up, species assumed)
Neurotrophin-3: YAEHKSHRGEYSVCDSESLWVTDKSSAIDIRGHQVTVLGEIKTGNSPVKQYFYETRCKEARPVKNGCRGIDDKHWNSQCKTSQTYVRALTSENNKLVGWRWIRIDTSCVCALSRKIGRT
modifications: Neurotrophin-3
Regarding B1, the results for the EC50, SHC1 recruitment assay in assay [1], in assay [2] and in assay [3] were 0.5 nM, 1.49 nM and 0.86 nM, respectively. Also, the Fold-increase, SHC1 recruitment assay in assay [1] worked out at 7.7 fold; in assay [2] it was 9.2 fold; in assay [3], 10.5 fold. In assay [4], the Cre-luciferase reporter, fold increase was 2.9 fold.

B2: mouse TOA-1 antibody (antibody, mouse IgG1, V domains shown)
VH: EVQLQQSGPELVKPGASMKISCKTSGYSFTAYFMNWVKQSHGKSLEWIGRINPNNGDTFYTQKFKGKATLTVDKSSNTAHMELLSLTSEDSAIYYCGRRDYFGAMDYWGQGTSVTVSS
VL: AIVLIQSPATLSVTPGDSVSLSCRASQTISNNLHWYQQKSHESPRLLIKSASLAISGIPSRFSGSGSGTDFTLSISSVETEDFGMYFCQQSNSWPNTFGGGTKLEIK
As a reminder, the EC50 is the concentration giving half of the maximal effect. High values mean a less potent agent, low ones a more potent agent. For B2, the EC50 in assay [5] was 0.65 nM.

B3: TAM-163 (huTOA-1 v1.0/1.4) (antibody, human IgG1, kappa, V domains shown)
VH: EVQLVESGGGLVQPGGSLRLSCAASGYSFTAYFMNWVRQAPGKGLEWVARINPNNGDTFYTQKFKGRFTISRDNAKNSLYLQMNSLRAEDTAVYYCARRDYFGAMDYWGQGTLVTVSS
VL: DIQMTQSPSSLSASVGDRVTITCRASQTISNNLHWYQQKPGKAPKLLIKSASLAISGVPSRFSGSGSGTDFTLTISSLQPEDFATYYCQQSNSWPNTFGGGTKVEIKR
For the molecule B3, the EC50 in assay [5] was 0.55 nM; in assay [6], 0.94 nM.

B4: NT-4 (ligand, UniProt P34130 81-210, looked up, species assumed)
Neurotrophin-4: GVSETAPASRRGELAVCDAVSGWVTDRRTAVDLRGREVEVLGEVPAAGGSPLRQYFFETRCKADNAEEGGPGAGGGGCRGVDRRHWVSECKAKQSYVRALTADAQGRVGWRWIRIDTACVCTLLSRTGRA
modifications: Neurotrophin-4
With B4, the EC50, SHC1 recruitment assay in assay [1] was found to be 0.33 nM; in assay [2] it was 0.43 nM. The Fold-increase, SHC1 recruitment assay amounted to 6.1 fold in assay [1], 9 fold in assay [2] and 1.1 fold in assay [3].
